Test results taken from article PMC3315512, “The Lid Domain of Caenorhabditis elegans Hsc70 Influences ATP Turnover, Cofactor Binding and Protein Folding Activity” (PLoS ONE, 2012).
Values belong to the binder of their own block, whether it stands above or below them.

How the values were obtained:
[1] = target: the molecule itself; assay: AUC; sedimentation velocity with fluorescence detection, 300 nM *DNJ-13 alone, 20°C, 42 000 rpm; whole boundary fitting and C(s) (UltraScan)
[2] = target: T1, His6-CeHsc70 (Caenorhabditis elegans Hsc70, HSP-1) (C. elegans, UniProt P09446 1-640); assay: cell-based or functional assay
T1 sequence (P09446 whole entry): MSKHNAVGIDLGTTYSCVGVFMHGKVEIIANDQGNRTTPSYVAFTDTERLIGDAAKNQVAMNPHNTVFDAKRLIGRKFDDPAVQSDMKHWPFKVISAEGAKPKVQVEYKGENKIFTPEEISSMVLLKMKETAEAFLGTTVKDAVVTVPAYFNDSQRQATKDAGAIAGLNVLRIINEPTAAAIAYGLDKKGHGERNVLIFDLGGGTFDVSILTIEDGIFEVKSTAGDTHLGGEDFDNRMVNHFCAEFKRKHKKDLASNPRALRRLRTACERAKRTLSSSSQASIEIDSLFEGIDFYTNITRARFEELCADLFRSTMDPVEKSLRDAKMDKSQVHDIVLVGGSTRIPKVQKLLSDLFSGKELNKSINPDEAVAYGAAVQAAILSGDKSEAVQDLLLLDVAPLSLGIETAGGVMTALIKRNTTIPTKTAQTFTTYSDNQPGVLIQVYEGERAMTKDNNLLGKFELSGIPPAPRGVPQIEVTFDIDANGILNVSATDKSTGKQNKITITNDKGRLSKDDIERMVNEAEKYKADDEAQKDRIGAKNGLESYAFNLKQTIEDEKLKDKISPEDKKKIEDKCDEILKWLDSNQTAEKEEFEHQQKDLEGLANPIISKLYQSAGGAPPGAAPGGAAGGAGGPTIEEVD

[3] = target: T1, His6-CeHsc70 (Caenorhabditis elegans …); assay: AUC; competition: 15 µM BAG-1 added to 300 nM *DNJ-13, 3 µM CeHsc70 and 4 mM ATP; sedimentation velocity with fluorescence detection; dc/dt analysis; settings: both partners purified

B1: *DNJ-13 (C. elegans DNJ-13 labelled with carboxyfluorescein) (natural protein)
chain: not shown
modifications: 5-(and-6)-carboxyfluorescein succinimidylester, preferential labeling at the N-terminal amine group (labelling efficiency 1.2)
notes: DNJ-13, Hsp40-like J-domain protein of C. elegans (Sis1 / DNAJB homolog); also called fluorescently labeled DNJ-13; source: E. coli BL21-CodonPlus (DE3)-RIL, purified (HisTrap, ResourceS, Superdex 75), then labelled
stoichiometry N [1]: 2

apparent KD of DNJ-13 from titration of the steady-state ATPase activity of 1 µM CeHsc70 in the presence of 2 µM BAG-1, standard buffer, 25°C [2]: 6.8 µM
B2: DNJ-13 (C. elegans, unlabelled) (natural protein)
chain: not shown

binding result [3]: binds
B3: BAG-1 (C. elegans, unlabelled) (natural protein, UniProt O44739 1-210, looked up)
chain: MKVNVSCSSVQTTIDILEENQGEDESILTLGQLRDRIATDNDVDVETMKLLHRGKFLQGADDVSLSTLNFKENDKIIVMGGKNALVDDAGFKMLMQYEKHNLSNLQKAYDLNLRDVADLERGFLEKPKQVEMGKKLEKKVKYFNEEAERHLETLDGMNIITETTPENQAKRNREKRKTLVNGIQTLLNQNDALLRRLQEYQSVLNGDIPE
notes: BAG-1, nucleotide exchange factor of C. elegans, full-length, cloned from a C. elegans cDNA preparation; a His tag is surmised from the HisTrap column; also called nematodal BAG-1; source: E. coli BL21-CodonPlus (DE3)-RIL, purified (HisTrap, ResourceQ, Superdex 75)
